Key:
[1] = biological target: T1, modified mouse Integrin αVβ3 with amino acids 164-202 of the human β chain (Mus musculus, UniProt O54890, A208T/I198L/K199E/N204D/N207T/Q196E/S226T); assay: Binding to modified mouse Integrin αVβ3; design: species or system mouse/human chimera
T1 sequence (O54890 26-787 Q196E/I198L/K199E/N204D/N207T/A208T/S226T): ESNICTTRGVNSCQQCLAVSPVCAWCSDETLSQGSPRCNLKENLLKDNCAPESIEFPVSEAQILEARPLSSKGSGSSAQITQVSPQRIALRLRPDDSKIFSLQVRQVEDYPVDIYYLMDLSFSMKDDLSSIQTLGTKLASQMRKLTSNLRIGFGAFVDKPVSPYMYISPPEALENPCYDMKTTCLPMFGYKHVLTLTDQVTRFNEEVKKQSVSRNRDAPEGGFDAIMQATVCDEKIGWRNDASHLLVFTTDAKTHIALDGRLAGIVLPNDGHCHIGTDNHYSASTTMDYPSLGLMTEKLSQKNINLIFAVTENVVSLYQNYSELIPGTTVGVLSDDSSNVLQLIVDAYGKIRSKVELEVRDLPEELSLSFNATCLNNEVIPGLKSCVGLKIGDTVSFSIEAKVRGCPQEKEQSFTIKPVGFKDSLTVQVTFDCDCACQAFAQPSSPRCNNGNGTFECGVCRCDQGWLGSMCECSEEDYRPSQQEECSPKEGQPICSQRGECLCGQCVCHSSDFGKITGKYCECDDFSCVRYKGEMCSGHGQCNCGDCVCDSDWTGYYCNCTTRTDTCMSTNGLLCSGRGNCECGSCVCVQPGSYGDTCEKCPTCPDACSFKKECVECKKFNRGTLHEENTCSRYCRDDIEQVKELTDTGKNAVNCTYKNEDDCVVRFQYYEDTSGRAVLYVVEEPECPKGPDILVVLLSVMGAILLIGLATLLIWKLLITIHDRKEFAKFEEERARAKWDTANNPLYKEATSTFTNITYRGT
T1 sequence (P43406 31-885 partner): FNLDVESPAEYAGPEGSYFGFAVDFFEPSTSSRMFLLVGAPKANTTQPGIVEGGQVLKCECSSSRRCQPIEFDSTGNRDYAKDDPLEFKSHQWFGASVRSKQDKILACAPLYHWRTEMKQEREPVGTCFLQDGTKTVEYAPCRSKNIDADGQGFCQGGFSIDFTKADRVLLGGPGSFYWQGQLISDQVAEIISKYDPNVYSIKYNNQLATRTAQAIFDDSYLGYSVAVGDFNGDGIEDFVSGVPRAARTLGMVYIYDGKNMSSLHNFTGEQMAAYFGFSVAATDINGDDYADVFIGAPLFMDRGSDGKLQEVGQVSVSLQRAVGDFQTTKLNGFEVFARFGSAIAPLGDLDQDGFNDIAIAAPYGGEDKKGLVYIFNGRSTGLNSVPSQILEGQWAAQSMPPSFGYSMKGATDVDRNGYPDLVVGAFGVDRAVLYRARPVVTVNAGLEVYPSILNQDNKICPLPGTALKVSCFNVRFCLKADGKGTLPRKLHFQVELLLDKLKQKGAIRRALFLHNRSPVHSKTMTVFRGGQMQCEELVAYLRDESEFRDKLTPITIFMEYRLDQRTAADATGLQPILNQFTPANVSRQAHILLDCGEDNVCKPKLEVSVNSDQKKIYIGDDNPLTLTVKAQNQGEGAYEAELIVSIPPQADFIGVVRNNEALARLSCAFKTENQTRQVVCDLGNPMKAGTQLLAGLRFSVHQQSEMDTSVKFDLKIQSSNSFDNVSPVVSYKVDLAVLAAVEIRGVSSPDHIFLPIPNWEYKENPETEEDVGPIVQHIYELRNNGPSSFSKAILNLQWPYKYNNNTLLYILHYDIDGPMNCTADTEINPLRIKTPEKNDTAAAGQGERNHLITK
T1 sequence (P43406 887-1044 partner): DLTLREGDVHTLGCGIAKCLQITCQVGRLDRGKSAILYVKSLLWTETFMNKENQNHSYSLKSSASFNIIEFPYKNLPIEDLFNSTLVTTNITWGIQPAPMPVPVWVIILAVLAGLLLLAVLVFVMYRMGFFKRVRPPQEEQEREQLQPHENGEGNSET

[2] = test system: αvβ3 expressed on placenta (placental trophoblasts); assay: Immunohistochemical staining of placental trophoblasts; assay type: binding; conditions: frozen thin sections, antibody 10 μg/ml
Protocol: (§1) Table 3. Immunohistochemical staining of placental trophoblasts. Placental tissue, a rich source of αvβ3, was collected either immediately after parturition or from freshly-sacrificed, late-term pregnant animals. Tissue fragments, approximately 1 cm^3, were frozen in OCT, and thin sections were stained with monoclonal antibodies (10 μg/ml) at Sierra Biomedical (Sparks, Nev.). Vitaxin® recognized αvβ3 expressed on human, monkey, guinea pig, hamster and rabbit placenta, while […] with human and monkey αvβ3. […] ND, not done.

[3] = biological target: T2, αvβ3 expressed on placenta (placental trophoblasts) (Homo sapiens, UniProt P05106); assay: as above; assay type: binding; conditions: frozen thin sections, antibody 10 μg/ml
T2 construct: from tissue; host or cells: placenta (frozen sections)
Protocol: as §1

mouse Integrin αVβ3 = biological target: T3, mouse Integrin αVβ3 (Mus musculus, UniProt O54890); assay: Binding to mouse Integrin αVβ3
T3 sequence (O54890 26-787): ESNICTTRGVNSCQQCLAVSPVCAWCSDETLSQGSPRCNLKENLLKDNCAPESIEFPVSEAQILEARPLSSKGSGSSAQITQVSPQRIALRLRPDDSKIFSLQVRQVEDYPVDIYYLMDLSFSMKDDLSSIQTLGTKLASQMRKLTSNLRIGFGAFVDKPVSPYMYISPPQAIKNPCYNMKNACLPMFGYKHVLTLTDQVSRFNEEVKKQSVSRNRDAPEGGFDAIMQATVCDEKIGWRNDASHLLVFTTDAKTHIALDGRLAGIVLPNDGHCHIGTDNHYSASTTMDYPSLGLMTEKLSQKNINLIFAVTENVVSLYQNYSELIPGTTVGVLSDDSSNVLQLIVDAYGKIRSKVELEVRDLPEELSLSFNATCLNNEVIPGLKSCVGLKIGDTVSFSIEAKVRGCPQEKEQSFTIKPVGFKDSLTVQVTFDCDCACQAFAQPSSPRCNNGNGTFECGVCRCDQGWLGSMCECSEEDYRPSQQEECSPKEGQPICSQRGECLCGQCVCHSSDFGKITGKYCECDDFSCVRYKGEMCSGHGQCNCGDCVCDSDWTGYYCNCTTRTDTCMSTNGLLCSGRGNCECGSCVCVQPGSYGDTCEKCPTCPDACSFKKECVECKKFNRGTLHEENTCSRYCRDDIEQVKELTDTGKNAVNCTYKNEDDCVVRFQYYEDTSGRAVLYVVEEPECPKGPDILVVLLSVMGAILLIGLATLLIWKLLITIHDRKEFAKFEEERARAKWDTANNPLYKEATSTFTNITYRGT
T3 sequence (P43406 31-885 partner limits assumed): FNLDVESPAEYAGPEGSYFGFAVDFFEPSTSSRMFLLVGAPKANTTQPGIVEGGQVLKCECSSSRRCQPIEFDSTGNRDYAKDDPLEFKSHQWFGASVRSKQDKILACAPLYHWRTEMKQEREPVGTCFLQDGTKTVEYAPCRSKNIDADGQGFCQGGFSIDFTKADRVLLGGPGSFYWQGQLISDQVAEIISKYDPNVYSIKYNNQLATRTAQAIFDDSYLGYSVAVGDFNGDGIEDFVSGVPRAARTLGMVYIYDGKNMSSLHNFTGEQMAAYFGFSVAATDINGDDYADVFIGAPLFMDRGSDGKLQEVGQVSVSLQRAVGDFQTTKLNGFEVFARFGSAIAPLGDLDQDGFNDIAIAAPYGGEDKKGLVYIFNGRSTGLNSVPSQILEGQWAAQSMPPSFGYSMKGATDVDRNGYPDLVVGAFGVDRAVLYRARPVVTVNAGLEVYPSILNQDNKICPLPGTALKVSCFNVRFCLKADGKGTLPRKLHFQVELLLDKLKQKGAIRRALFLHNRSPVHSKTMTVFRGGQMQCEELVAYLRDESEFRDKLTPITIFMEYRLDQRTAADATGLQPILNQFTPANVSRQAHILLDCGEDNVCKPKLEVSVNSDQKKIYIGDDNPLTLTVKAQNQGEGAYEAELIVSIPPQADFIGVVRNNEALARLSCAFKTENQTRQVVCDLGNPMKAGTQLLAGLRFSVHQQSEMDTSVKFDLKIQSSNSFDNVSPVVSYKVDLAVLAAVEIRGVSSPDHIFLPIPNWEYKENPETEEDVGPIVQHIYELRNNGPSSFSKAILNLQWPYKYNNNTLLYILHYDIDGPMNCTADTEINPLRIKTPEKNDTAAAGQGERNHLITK
T3 sequence (P43406 887-1044 partner limits assumed): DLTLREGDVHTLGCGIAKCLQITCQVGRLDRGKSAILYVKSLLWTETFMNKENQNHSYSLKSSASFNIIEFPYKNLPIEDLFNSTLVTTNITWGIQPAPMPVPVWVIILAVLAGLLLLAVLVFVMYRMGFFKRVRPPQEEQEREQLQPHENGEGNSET

T2 sequence (P05106 27-788): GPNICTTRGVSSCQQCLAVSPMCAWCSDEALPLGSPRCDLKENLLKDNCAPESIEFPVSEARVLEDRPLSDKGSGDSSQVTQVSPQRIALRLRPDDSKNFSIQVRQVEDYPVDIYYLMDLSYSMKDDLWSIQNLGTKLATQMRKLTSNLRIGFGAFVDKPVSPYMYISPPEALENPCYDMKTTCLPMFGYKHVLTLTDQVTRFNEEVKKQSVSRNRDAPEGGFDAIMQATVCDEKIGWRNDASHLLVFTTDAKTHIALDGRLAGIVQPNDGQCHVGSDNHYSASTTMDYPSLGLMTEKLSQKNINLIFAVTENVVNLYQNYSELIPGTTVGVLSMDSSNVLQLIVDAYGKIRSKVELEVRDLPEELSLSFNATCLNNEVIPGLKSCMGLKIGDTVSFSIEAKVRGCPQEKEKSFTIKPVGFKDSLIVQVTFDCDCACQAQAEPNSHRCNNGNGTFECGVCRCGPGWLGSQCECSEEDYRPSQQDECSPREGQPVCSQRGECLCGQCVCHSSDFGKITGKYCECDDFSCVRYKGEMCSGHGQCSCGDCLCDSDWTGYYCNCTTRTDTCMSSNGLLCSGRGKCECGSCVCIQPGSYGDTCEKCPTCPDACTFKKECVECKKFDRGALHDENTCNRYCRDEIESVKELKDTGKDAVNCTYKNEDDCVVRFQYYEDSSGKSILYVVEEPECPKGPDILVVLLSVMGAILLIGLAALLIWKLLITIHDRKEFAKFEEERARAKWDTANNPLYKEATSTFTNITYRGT
T2 sequence (P06756 31-889 partner limits assumed): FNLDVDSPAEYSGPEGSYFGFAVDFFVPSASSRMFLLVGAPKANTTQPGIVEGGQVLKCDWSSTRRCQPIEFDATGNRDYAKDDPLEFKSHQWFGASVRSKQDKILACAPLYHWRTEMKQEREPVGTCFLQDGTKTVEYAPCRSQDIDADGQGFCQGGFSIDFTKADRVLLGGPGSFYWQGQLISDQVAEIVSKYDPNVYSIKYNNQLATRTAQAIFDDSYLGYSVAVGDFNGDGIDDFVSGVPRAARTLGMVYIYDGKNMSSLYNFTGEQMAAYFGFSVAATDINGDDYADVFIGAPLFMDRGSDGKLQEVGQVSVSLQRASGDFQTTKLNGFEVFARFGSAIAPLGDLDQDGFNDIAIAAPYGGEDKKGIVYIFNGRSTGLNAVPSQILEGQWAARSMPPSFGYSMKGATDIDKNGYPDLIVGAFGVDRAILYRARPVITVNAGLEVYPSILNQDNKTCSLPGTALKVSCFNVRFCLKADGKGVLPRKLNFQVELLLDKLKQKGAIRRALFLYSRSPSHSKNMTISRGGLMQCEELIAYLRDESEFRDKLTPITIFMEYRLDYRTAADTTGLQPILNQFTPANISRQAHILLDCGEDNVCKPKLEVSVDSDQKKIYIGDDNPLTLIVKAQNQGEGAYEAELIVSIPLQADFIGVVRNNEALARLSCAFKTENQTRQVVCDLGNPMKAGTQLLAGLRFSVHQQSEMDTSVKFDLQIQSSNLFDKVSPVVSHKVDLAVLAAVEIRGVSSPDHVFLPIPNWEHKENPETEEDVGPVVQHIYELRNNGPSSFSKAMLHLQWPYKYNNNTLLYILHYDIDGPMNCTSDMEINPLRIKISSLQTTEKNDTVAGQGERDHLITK
T2 sequence (P06756 891-1048 partner limits assumed): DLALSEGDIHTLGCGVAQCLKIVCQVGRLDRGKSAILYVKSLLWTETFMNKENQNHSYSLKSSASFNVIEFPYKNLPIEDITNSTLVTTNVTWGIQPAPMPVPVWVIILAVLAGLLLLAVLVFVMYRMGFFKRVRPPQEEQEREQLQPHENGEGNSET

B1: Vitaxin®: humanized blocking monoclonal antibody that binds Integrin αVβ3 (MEDI-522, MedImmune); humanized and optimized version of LM609 (antibody, chains of the INN, looked up, V domains shown)
VH: QVQLVESGGGVVQPGRSLRLSCAASGFTFSSYDMSWVRQAPGKGLEWVAKVSSGGGSTYYLDTVQGRFTISRDNSKNTLYLQMNSLRAEDTAVYYCARHLHGSFASWGQGTTVTVSS
VL: EIVLTQSPATLSLSPGERATLSCQASQSISNFLHWYQQRPGQAPRLLIRYRSQSISGIPARFSGSGSGTDFTLTISSLEPEDFAVYYCQQSGSWPLTFGGGTKVEIK
With B1 the “binding to modified mouse Integrin αVβ3 (human β chain amino acids 164-202)” value [1] was “do bind”, the “Staining of Placental Trophoblasts” value ([2]; Cynomolgus monkey placenta) was “recognized” and the “Staining of Placental Trophoblasts” value ([2]; Guinea pig placenta) was “recognized”. For the same molecule, the “Staining of Placental Trophoblasts” value ([2]; Hamster placenta) was “recognized”, the “Staining of Placental Trophoblasts” value ([2]; Rabbit placenta) was “recognized” and the “Staining of Placental Trophoblasts” value [3] was “recognized”. The “binding to mouse Integrin αVβ3” value (mouse Integrin αVβ3) was “do not bind”.
